Experimental data: patent publication US20170299608A1 (NGM BIOPHARMACEUTICALS, published 2017)
Blank lines part the entries; values can stand above or below the binder they belong to.

What was measured:
[1] = biological target: T1, cynomolgus monkey GFRAL, expressed on HEK293T cells (cynomolgus monkey, UniProt Q6UXV0 19-394 (human entry)); assay: cell-based or functional assay
T1 chain: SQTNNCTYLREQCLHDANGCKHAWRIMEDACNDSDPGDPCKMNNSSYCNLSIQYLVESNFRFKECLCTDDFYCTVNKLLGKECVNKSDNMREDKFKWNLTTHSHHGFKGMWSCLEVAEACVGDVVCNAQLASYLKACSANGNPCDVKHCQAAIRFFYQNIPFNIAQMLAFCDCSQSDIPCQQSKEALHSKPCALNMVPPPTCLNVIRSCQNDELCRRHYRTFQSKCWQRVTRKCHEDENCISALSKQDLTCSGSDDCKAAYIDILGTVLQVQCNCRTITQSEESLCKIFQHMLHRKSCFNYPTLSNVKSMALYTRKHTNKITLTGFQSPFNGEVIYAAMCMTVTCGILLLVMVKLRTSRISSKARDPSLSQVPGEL

[2] = biological target: T2, human GFRAL, full length, expressed on HEK293 / HEK293T cells (human, UniProt Q6UXV0 20-394); assay: cell-based or functional assay
T2 sequence: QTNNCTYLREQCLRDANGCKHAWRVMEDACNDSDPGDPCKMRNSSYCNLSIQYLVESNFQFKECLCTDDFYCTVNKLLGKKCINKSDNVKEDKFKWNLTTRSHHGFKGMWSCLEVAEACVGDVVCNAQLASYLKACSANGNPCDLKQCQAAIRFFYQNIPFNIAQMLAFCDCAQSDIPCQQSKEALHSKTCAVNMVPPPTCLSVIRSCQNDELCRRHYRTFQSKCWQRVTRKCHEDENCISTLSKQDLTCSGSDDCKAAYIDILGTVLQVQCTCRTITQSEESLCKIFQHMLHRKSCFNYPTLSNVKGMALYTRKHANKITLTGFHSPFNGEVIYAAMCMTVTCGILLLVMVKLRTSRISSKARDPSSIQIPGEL

[3] = biological target: T3, rat GFRAL, expressed on HEK293T cells (rat, UniProt D3ZB94 20-394); assay: cell-based or functional assay
T3 sequence: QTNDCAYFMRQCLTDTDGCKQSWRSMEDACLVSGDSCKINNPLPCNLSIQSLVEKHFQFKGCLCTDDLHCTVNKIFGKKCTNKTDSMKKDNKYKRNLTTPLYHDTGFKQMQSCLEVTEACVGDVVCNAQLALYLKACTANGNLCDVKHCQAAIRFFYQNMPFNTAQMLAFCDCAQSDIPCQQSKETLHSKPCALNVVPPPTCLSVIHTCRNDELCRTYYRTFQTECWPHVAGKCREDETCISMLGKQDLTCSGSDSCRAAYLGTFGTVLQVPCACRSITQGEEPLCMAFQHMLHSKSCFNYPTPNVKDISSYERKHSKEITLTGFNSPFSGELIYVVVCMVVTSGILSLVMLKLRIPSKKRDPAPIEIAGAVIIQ

[4] = biological target: T4, mouse GFRAL, expressed on HEK293T cells (mouse, UniProt Q6SJE0 20-393); assay: cell-based or functional assay
T4 sequence: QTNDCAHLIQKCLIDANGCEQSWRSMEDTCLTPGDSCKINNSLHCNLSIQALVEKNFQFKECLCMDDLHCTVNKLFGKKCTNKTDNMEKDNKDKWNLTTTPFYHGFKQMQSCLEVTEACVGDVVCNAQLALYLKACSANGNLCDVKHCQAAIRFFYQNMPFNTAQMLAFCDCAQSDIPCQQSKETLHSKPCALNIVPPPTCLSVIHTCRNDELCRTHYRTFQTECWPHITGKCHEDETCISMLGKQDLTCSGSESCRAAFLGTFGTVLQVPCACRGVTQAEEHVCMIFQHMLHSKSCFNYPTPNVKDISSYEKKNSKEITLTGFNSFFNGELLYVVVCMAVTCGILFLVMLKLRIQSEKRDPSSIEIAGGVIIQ

[5] = biological target: T2, human GFRAL, full length, expressed on …; assay: radio-ligand competition: unlabeled GDF15 displacing 0.15 nM ^125I-GDF15 from HEK293-GFRAL cells
Method: HEK293-GFRAL cells were suspended in ice-cold binding buffer (Dulbecco's modified Eagle's medium containing 2 mg/ml BSA, and 25 mM HEPES, pH 7.4) and transferred to pre-wetted Multiscreen filter plates (96-well Dura PVDF 0.65 um Opaque; Millipore), which were kept on ice. Typically, 1×10⁵ of cells in 25 μl were used per well. […] Plates were then transferred to a vacuum filtration manifold (Pall Corporation) and supernatants were filtered. Each well was washed four times with 100 μl of ice cold binding buffer. Bound ¹²⁵I-GDF15 (CPM) were measured by scintillation counting (150 μl/well of EcoLite, MP Biomedicals, Santa Anna, Calif.) using MicroBeta2 Plate Counter (Perkin Elmer). The concentrations (in nM) of unlabeled inhibitors used in this experiment are as follows. GDF15 and GFRAL-Fc: 100, 25, 6.25, 1.56, 0.39, 0.098, 0.024, 0.006; 1M03: 1000, 250, 62.5, 15.63, 3.91, 0.98, 0.24, 0.06.

[6] = biological target: T2, human GFRAL, full length, expressed on …; assay: radioligand saturation binding to HEK293 cells expressing human GFRAL, equilibrium, 2 hr at 4 °C
Method: HEK293 or HEK293-human GFRAL cells were suspended in ice-cold binding buffer (Dulbecco's modified Eagle's medium containing 2 mg/ml BSA, and 25 mM HEPES, pH 7.4) and transferred to pre-wetted Multiscreen filter plates (96-well Dura PVDF 0.65 um Opaque; Millipore), which were kept on ice. Typically, 1×10⁵ of cells in 25 μl were used per well. Cells were incubated with 25 μl of binding buffer containing serial dilution of ¹²⁵I-GDF15 (2 fold serial dilution from 1000 pM to 0.1 pM final reaction concentration) with or without unlabeled GDF15 (500 nM final reaction concentration) for 2 hr at 4° C. Plates were then transferred to a vacuum filtration manifold (Pall Corporation) and supernatants were filtered. Each well was washed four times with 100 μl of ice cold binding buffer. Bound ¹²⁵I-GDF15 were measured by scintillation counting (150 μl/well of EcoLite, MP Biomedicals, Santa Anna, Calif.) using MicroBeta2 Plate Counter (Perkin Elmer). Bound (molecule/cell) was calculated according to a standard curve correlating CPM and molarity of ¹²⁵I-GDF15.
To determine the binding affinity of GDF15 to GFRAL, radio-labeled ¹²⁵I-GDF15 was used to bind HEK293 cells expressing human GFRAL (FIG. 2A) under equilibrium conditions. […] Excess amount of unlabeled GDF15 (500 nM) reduced the ¹²⁵I-GDF15-GFRAL binding to ‘non-specific’ background level. […]

EC50 of Elk/GAL4-luciferase reporter in HEK293T cells co-transfected with cynomolgus monkey GFRAL and RET9 [1]: 5.2 pM
EC50 of Elk/GAL4-luciferase reporter in HEK293T cells co-transfected with human GFRAL and human RET9 [2]: 2.1 pM
EC50 of Elk/GAL4-luciferase reporter in HEK293T cells co-transfected with rat GFRAL and RET9 [3]: 6.2 pM
EC50 of Elk/GAL4-luciferase reporter in HEK293T cells co-transfected with mouse GFRAL and RET9 [4]: 1.5 pM
IC50 [5]: 400 pM
B1: mature human GDF15 (112 amino acids) (ligand)
chain: ARNGDHCPLGPGRCCRLHTVRASLEDLGWADWVLSPREVQVTMCIGACPSQFRAANMHAQIKTSLHRLKPDTVPAPCCVPASYNPMVLIQKTDTGVSLQTYDDLLAKDCHCI
notes: also called hGDF15; unlabeled GDF15

Kd [6]: ~200 pM
B2: ^125I-GDF15 (radio-iodinated mature human GDF15) (ligand)
chain: B1 chain
modifications: 125I label, site not stated
notes: Labelled form of m1; also called radio-labeled GDF15
